# Molecular target: Aβ extracted from AD brain (human (endogenous in AD brain))
# Assay: immunoprecipitation and SDS-PAGE Western blot
substance,measurement,value
Aβ extracted from AD brain (peptide),stoichiometry N,2
